Measurements from patent publication US20210162028A1, “Methods for Inducing Intermittent Fasting and Modulating Autophagy” (The Hong Kong Polytechnic University, priority 2019, published 2021).

Assays:
[1] = Half-life / therapeutic duration in circulation; parameters: species or system mice; conditions: mouse, in vivo
Description: As used herein, the term “half-life” or “½-life” refers to the time that would be required for the concentration of an agent, e.g., a fusion protein or arginine depleting agent as described herein, to fall by half in vitro or in vivo, for example, after injection into a mammal. In certain instances, the concentration of plasma arginine, after injection, is used herein as a proxy indicator of the half-life of the agent. In such instances, the term “therapeutic duration” is used to refer to the length of time a specified dosage of the arginine depleting agent is able to maintain the plasma concentration of arginine below a specified threshold concentration that a desired therapeutic effect is observed. In certain embodiments, the threshold concentration of plasma arginine is below 50 μM, below 40 μM, below 30 μM, below 20 μM, below 10 μM, below 5 μM, below 3 μM, or at a concentration below the detection limit of conventional analytical instrumentation.
Importantly, the present invention used a new ABD fusion approach to join an ABD and an arginase together so that arginase activity can be retained. Stable and soluble arginase-ABD fusion molecules that can bind to FcRn in a pH-dependent manner were successfully generated, allowing for efficient endosomal recycling. […] Taken together, a variety of different approaches are available for fine-tuning the pharmacokinetic properties of arginases, ensuring appropriate residence time in circulation for different disease conditions. Another key issue in the development of any therapeutic protein is to minimize immunogenicity to avoid adverse effects. Thus, the observed low immunogenicity of human arginase and the successful deimmunization of ABD (e.g. ABD094), which was also used in the present disclosure as gene fusion partner to extend the in vivo half-life, are important.

[2] = Insulin tolerance test (ITT); type: in vivo, mouse; conditions: DIO C57BL/6J male mice on HFD; about 250 U once a week; at 7 week
Description: In terms of reversing insulin resistance on pre-existing obese mice, insulin tolerance test (ITT) was employed (FIG. 59).
In terms of reversing insulin resistance on pre-existing obese mice, insulin tolerance test (ITT) was employed (FIG. 68A).

[3] = Fat pad and organ mass at end of treatment; type: in vivo, mouse; conditions: DIO C57BL/6J male mice on HFD; about 250 U once a week, 8 weeks
[4] = Daily food intake / 7-day intermittent fasting cycle in mice; type: in vivo, mouse
Description: One of the most noticeable effects of intermittent fasting is reduction of bodyweight. […] Specifically, C57BL/6J, which is the most commonly used mouse strain for polygenic obesity model, was used in the study. It is well-reported that C57BL/6J male mice feeding on a high-fat diet will have prominent weight gain, become obese and develop hyperinsulinemia, hyperglycemia, impaired glucose tolerance and insulin resistance [Gallou-Kabani et al., 2007, Obesity 15(8):1996-2005]. Obesity was induced in C57BL/6J male mice via feeding ad libitum a high-fat diet containing 60 kcal % fat (HFD; Research Diets, D12492) for 12-14 weeks starting from 5-week old. These mice are referred as diet-induced obese (DIO) mice. DIO mice were stratified according to bodyweight into 2 groups. […] Both groups of mice continued to feed ad libitum on the HFD throughout the treatment period. One group of age-matched C57BL/6J male mice feeding ad libitum on an ordinary rodent chow diet (CD; LabDiet, 50IF/6F) and injected with vehicle served as the lean control [CD (vehicle) group]. Food intake and bodyweight of mice were measured daily. […] DIO mice were injected with rhArg on Day 0, which was Day 7 of the previous cycle. Similarly, Day 7 of the cycle shown in FIG. 1B was Day 0 of the next cycle. […] Bodyweight gain is one of the biomarkers related to aging.
C57BL/6J male mice were fed a high-fat diet from 5-week old for 12 weeks. They were then stratified into 3 groups according to their bodyweight and individually caged: (i) one group of mice received i.p. injection of 600 U N-ABD094-rhArg (SEQ ID NO: 50) once a week [HFD (rhArg) group] and was fed ad libitum the HFD for 5 weeks; (ii) one group of mice received i.p. injection of saline once a week, and was fed a predetermined amount of HFD on each day to artificially create a 7-day intermittent fasting cycle that mimics the pattern of food intake of mice administered once a week with rhArg [HFD (artificial IF) group)]; (iii) one group of mice was injected with saline once a week and was fed ad libitum the HFD [HFD (vehicle) group].

[5] = Glucose tolerance test (GTT); type: in vivo, mouse; conditions: DIO C57BL/6J male mice on HFD; about 250 U once a week; at 6 week
[6] = Bodyweight of treated mice; type: in vivo, mouse
[7] = DIO C57BL/6J male mice on HFD, about 250 U i.p. once a week, 8 weeks
[8] = DIO C57BL/6J male mouse on HFD, 50 U i.p. once a week, 2 weeks, n=1

B1: BHA: arginase-ABD fusion protein, SEQ ID NO: 75 (protein)
chain: MKPISIIGVPMDLGQTRRGPDMGPSAMRYAGVIERLERLHYDIEDLGDIPIGKAERLHEQGDSRLRNLKAVAEANEKLAAAVDQVVQRGRFPLVLGGDHSIAIGTLAGVAKHYERLGVIWYDAHGDVNTAETSPSGNIHGMPLAASLGFGHPALTQIGGYCPKIKPEHVVLIGVRSLDEGEKKFIREKGIKIYTMHEVDRLGMTRVMEETIAYLKERTDGVHLSLDLDGLDPSDAPGVGTPVIGGLTYRESHLAMEMLAEAQIITSAEFVEVNPILDERNKTASVAVALMGSLFGEKLMHHHHHHAQHDEAVDANSLAEAKVLANRELDKYGVSDYYKNLINNAKTVEGVKALIDEILAALP
modifications: BHA Fusion Protein, Synthesized in the Lab
Q: Which “Therapeutic duration (and half-life)” value [1] does the source give for B1 here?
A: The value was “surprisingly high therapeutic duration (and half-life)”.

B2: BAH: arginase-ABD fusion protein, SEQ ID NO: 76 (protein)
chain: MKPISIIGVPMDLGQTRRGPDMGPSAMRYAGVIERLERLHYDIEDLGDIPIGKAERLHEQGDSRLRNLKAVAEANEKLAAAVDQVVQRGRFPLVLGGDHSIAIGTLAGVAKHYERLGVIWYDAHGDVNTAETSPSGNIHGMPLAASLGFGHPALTQIGGYCPKIKPEHVVLIGVRSLDEGEKKFIREKGIKIYTMHEVDRLGMTRVMEETIAYLKERTDGVHLSLDLDGLDPSDAPGVGTPVIGGLTYRESHLAMEMLAEAQIITSAEFVEVNPILDERNKTASVAVALMGSLFGEKLMAQHDEAVDANSLAEAKVLANRELDKYGVSDYYKNLINNAKTVEGVKALIDEILAALPHHHHHH
modifications: BAH Fusion Protein, Synthesized in the Lab
Q: With B2 as the molecule, how does the “Therapeutic duration (and half-life)” value [1] read?
A: The value was “surprisingly high therapeutic duration (and half-life)”.

B3: PEGylated His-rhArg: PEGylated His-tagged recombinant human arginase (SEQ ID NO: 101) (protein)
chain: MHHHHHHMSAKSRTIGIIGAPFSKGQPRGGVEEGPTVLRKAGLLEKLKEQECDVKDYGDLPFADIPNDSPFQIVKNPRSVGKASEQLAGKVAEVKKNGRISLVLGGDHSLAIGSISGHARVHPDLGVIWVDAHTDINTPLTTTSGNLHGQPVSFLLKELKGKIPDVPGFSWVTPCISAKDIVYIGLRDVDPGEHYILKTLGIKYFSMTEVDRLGIGKVMEETLSYLLGRKKRPIHLSFDVDGLDPSFTPATGTPVVGGLTYREGLYITEEIYKTGLLSGLDIMEVNPSLGKTPEEVTRTVNTAVAITLACFGLAREGNHKPIDYLNPPK
modifications: PEGylated; His-rhArg, Synthesized in Lab
Q: With B3 as the molecule, how does the “Insulin sensitivity in ITT” value [2] read?
A: The value was “marked increase in insulin sensitivity”.

Q: What about the “Fat pad mass (perirenal, inguinal WAT, interscapular BAT) and liver mass” value [3] of the same molecule?
A: The value was “dramatically reduced to a weight similar to that of the vehicle-treated lean control mice”.

Q: And the “Kidney and heart mass” value [3]?
A: Its value is “significantly reduced”.

Q: And the “Pattern of food intake (intermittent fasting cycles)” value [4, 7]?
A: The value was “repetitive 7-day intermittent fasting cycles”.

Q: What about the “Total food intake per week, less than HFD (vehicle) group” value [4, 7] of the same molecule?
A: The value was “about 28%”.

Q: And the “Glucose tolerance in GTT” value [5]?
A: Its value is “significantly improved glucose tolerance”.

Q: What about the “Bodyweight reached under treatment” value ([6]; DIO C57BL/6J male mice on HFD, about 250 U i.p. once a week, from 50 g within 8 weeks) of the same molecule?
A: The value was 30 g.

B4: N-ABD094-rhArg-Co^2+: SEQ ID NO: 50 (cobalt substituted); Mn^2+ substituted with Co^2+ in the ABD-rhArg fusion protein (protein)
chain: MHHHHHHDEAVDANSLAEAKEAANAELDSYGVSDFYKRLIDKAKTVEGVEALKDAILAALPSGSNNNNNNGSGGMSAKSRTIGIIGAPFSKGQPRGGVEEGPTVLRKAGLLEKLKEQECDVKDYGDLPFADIPNDSPFQIVKNPRSVGKASEQLAGKVAEVKKNGRISLVLGGDHSLAIGSISGHARVHPDLGVIWVDAHTDINTPLTTTSGNLHGQPVSFLLKELKGKIPDVPGFSWVTPCISAKDIVYIGLRDVDPGEHYILKTLGIKYFSMTEVDRLGIGKVMEETLSYLLGRKKRPIHLSFDVDGLDPSFTPATGTPVVGGLTYREGLYITEEIYKTGLLSGLDIMEVNPSLGKTPEEVTRTVNTAVAITLACFGLAREGNHKPIDYLNPPK
modifications: Co2+ substituted for Mn2+; N-ABD094-rhArg, Synthesized in the Lab
notes: Mn^2+ substituted with Co^2+ in the ABD-rhArg fusion protein
Q: For B4, which “Length of fasting period in the 7-day intermittent fasting cycle” value [4, 8] is on record?
A: The value was 4 days.

Q: What about the “Pattern of food intake (intermittent fasting cycle)” value [4, 8] of the same molecule?
A: The value was “induce a 7-day intermittent fasting cycle”.

Q: And the “Bodyweight reached under treatment” value ([6]; DIO C57BL/6J male mouse on HFD, 50 U i.p. once a week, from 45 g within 2 weeks, n=1)?
A: The value was 32 g.

B5: ADI-ABD: arginine deiminase fused with albumin binding domain (SEQ ID NO: 107) (protein)
chain: MHHHHHHDEAVDANSLAEAKVLANRELDKYGVSDYYKNLINNAKTVEGVKALIDEILAALPSGSNNNNNNGSGGSVFDSKFKGIHVYSEIGELESVLVHEPGREIDYITPARLDELLFSAILESHDARKEHKQFVAELKANDINVVELIDLVAETYDLASQEAKDKLIEEFLEDSEPVLSEEHKVVVRNFLKAKKTSRELVEIMMAGITKYDLGIEADHELIVDPMPNLYFTRDPFASVGNGVTIHYMRYKVRQRETLFSRFVFSNHPKLINTPWYYDPSLKLSIEGGDVFIYNNDTLVVGVSERTDLQTVTLLAKNIVANKECEFKRIVAINVPKWTNLMHLDTWLTMLDKDKFLYSPIANDVFKFWDYDLVNGGAEPQPVENGLPLEGLLQSIINKKPVLIPIAGEGASQMEIERETHFDGTNYLAIRPGVVIGYSRNEKTNAALEAAGIKVLPFHGNQLSLGMGNARCMSMPLSRKDVKW
modifications: ADI-ABD, Synthesized in the Lab
Q: With B5 as the molecule, how does the “Time of minimum level of food intake in the cycle” value ([4]; DIO C57BL/6J male mice on HFD, i.p. once a week) read?
A: The value was “after the first day”.

Q: What about the “Pattern of food intake (intermittent fasting cycle)” value ([4]; DIO C57BL/6J male mouse on HFD, 5 U i.p. once a week, 2 weeks, n=1) of the same molecule?
A: The value was “induce a 7-day intermittent fasting cycle”.

Q: What about the “Bodyweight reached under treatment” value ([6]; DIO C57BL/6J male mouse on HFD, 5 U i.p., first cycle, from 47 g in 2 days, n=1) of the same molecule?
A: The value was “about 44 g”.
